Reference: paper doi:10.1101/2021.12.23.474050 (bioRxiv, 2021)

Target: wild-type (WT) RBD of the SARS-CoV-2 spike protein (SARS-CoV-2, UniProt P0DTC2)
Assay: ITC

B1: LY-CoV555 ScFv (scFv, V domains shown)
VH: QVQLVQSGAEVKKPGSSVKVSCKASGGTFSNYAISWVRQAPGQGLEWMGRIIPILGIANYAQKFQGRVTITADKSTSTAYMELSSLRSEDTAVYYCARGYYEARHYYYYYAMDVWGQGTAVTVSS
VL: not shown
Kd: 3.8 ± 1.9 nM

B2: REGN-10987 ScFv (scFv, V domains shown)
VH: QVQLVESGGGVVQPGRSLRLSCAASGFTFSNYAMYWVRQAPGKGLEWVAVISYDGSNKYYADSVKGRFTISRDNSKNTLYLQMNSLRTEDTAVYYCASGSDYGDYLLVYWGQGTLVTVSS
VL: QSALTQPASVSGSPGQSITISCTGTSSDVGGYNYVSWYQQHPGKAPKLMIYDVSKRPSGVSNRFSGSKSGNTASLTISGLQSEDEADYYCNSLTSISTWVFGGGTKLTVL
Kd: 34.3 ± 8.1 nM
